We go through 1 substance from US20190194334A1.

This assay deals with cell surface (plasma membrane) nucleolin of human tumor cells (human) (UniProt P19338). In words: flow cytometry of non-permeabilized MCF-7 cells, dot plot of side scatter against FITC fluorescence [B].
UniProt P19338, sequence (P19338 2-710 limits assumed): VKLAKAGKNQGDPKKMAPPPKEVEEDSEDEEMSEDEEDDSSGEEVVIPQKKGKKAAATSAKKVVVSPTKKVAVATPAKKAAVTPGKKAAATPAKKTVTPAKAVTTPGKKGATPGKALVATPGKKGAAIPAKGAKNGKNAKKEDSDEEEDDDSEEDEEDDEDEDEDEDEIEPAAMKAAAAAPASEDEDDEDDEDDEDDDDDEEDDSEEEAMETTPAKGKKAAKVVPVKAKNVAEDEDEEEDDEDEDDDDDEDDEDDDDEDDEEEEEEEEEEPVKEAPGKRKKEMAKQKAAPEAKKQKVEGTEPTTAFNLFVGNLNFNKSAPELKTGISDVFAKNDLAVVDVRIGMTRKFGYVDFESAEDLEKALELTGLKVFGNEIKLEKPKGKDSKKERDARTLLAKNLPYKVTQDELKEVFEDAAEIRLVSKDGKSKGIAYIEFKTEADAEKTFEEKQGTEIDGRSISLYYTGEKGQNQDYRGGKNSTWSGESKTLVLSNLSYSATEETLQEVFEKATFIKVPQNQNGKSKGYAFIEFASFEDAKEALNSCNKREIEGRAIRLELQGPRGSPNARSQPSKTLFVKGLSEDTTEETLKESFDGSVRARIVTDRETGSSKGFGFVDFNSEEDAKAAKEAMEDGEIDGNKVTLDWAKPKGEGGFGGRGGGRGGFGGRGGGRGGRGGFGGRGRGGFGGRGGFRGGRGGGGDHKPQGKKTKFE

Consider Control IgG-FITC (antibody), for which the percent of cells in the FITC-positive gate was 1.5%.
